Source: publication PMC9151340

T1: GlnR (UniProt F2RFQ1 1-276)
T1 sequence: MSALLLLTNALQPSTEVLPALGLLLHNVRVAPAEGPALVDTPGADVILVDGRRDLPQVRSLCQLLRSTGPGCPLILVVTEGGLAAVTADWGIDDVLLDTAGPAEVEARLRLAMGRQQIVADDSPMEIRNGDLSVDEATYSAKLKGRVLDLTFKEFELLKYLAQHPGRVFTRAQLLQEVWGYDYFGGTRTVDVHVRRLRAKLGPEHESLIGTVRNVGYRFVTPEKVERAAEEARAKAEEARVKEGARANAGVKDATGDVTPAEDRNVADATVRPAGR

T2: MtrA (UniProt F2R521 1-225)
T2 sequence: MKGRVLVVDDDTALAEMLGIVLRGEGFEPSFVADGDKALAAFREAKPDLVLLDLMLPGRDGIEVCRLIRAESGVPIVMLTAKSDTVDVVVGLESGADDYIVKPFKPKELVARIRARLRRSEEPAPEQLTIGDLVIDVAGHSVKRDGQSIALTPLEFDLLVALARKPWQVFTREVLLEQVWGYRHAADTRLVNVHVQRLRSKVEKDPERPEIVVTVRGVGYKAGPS


What follows are binders tested against T1, GlnR (assay: EMSA).

Binder | binding result
mtrA WT (SVEN2756 WT) (dsDNA) DNA 1: TACGGTGCAGGCCGACCACGGGGGCCCACGGGGGTGACATCCATGTCTGGCATCAACAC DNA 2: GTGTTGATGCCAGACATGGATGTCACCCCCGTGGGCCCCCGTGGTCGGCCTGCACCGTA | binds

Each binder was assayed against T2, MtrA (assay: EMSA).

Binder | binding result
mtrA WT (SVEN2756 WT) (dsDNA) DNA 1: TACGGTGCAGGCCGACCACGGGGGCCCACGGGGGTGACATCCATGTCTGGCATCAACAC DNA 2: GTGTTGATGCCAGACATGGATGTCACCCCCGTGGGCCCCCGTGGTCGGCCTGCACCGTA | binds
mtrA M1 (SVEN2756 M1) (dsDNA) DNA 1: TACGGTGCAGGCCGACCACGGGGGCCCACGGGGAGGCTATCCATGTCTGGCATCAACAC DNA 2: GTGTTGATGCCAGACATGGATAGCCTCCCCGTGGGCCCCCGTGGTCGGCCTGCACCGTA | no binding
mtrA M2 (SVEN2756 M2) (dsDNA) DNA 1: TACGGTGCAGGCCGACCACGGGGGCCCACGGGGGTGACATCCATACTTGGCATCAACAC DNA 2: GTGTTGATGCCAAGTATGGATGTCACCCCCGTGGGCCCCCGTGGTCGGCCTGCACCGTA | no binding
mtrA M3 (SVEN2756 M3) (dsDNA) DNA 1: TACGGTGCAGGCCGACCACGGGGGCCCACGGGGAGGCTATCCATACTTGGCATCAACAC DNA 2: GTGTTGATGCCAAGTATGGATAGCCTCCCCGTGGGCCCCCGTGGTCGGCCTGCACCGTA | no binding
nirB-WT (dsDNA) DNA 1: GGAGATCAGCGTTCCGTACGGGAAACAGTCGGGATGCCGCCGGGTAACACCGGCCGCGC DNA 2: GCGCGGCCGGTGTTACCCGGCGGCATCCCGACTGTTTCCCGTACGGAACGCTGATCTCC | binds
SVEN1860 WT (dsDNA) DNA 1: GTTTCATCAGTGTTTGACCACCGGGTCACGCCCTGGTAACACCAGTCTGTGAGCCTGGT DNA 2: ACCAGGCTCACAGACTGGTGTTACCAGGGCGTGACCCGGTGGTCAAACACTGATGAAAC | binds
